# Numbered stars: 1 amine (or outer) side, 2 acyl side, 3 side chain; on linkers, the order of the positions; unused ones are H or OH. Bridge positions count the residues as written; N and C are the ends. Ends that are not written are not given here. Phenylene(1,4-NHCOCH2)2 = O=C(C[*:1])Nc1ccc(NC(=O)C[*:2])cc1
# Assays:
# Format in all cases: binding
# CUL5 = molecular target: T1, CUL5 (Homo sapiens, UniProt Q93034, L345D/V341R); test: Naive Library Presenter Screening (phage, NGS), CUL5; details: for interaction data at Target Concentration 1000: CUL5 target concentration 1000 nM
# T1 construct: GST-TEV (N, cleaved yes); made in house; host or cells: E. coli BL21 CodonPlus
# T1 sequence (Q93034 1-386 V341R/L345D): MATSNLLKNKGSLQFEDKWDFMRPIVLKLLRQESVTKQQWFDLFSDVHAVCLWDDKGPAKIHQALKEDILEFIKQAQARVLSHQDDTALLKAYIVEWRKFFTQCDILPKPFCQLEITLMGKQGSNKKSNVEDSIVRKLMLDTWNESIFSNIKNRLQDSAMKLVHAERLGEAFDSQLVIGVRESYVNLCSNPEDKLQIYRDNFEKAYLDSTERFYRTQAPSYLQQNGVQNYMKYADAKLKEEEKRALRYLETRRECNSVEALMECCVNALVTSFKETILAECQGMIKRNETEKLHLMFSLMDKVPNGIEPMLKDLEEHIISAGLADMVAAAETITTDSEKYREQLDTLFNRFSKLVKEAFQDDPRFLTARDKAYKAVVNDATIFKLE
# FBXW7-SKP1 = molecular target: T2, FBXW7-SKP1 (Homo sapiens, UniProt Q969H0); test: Naive Library Presenter Screening (phage, NGS), FBXW7-SKP1; details: for interaction data at Target Concentration 10: FBXW7 target concentration 10 nM; for interaction data at Target Concentration 30: FBXW7 target concentration 30 nM; for interaction data at Target Concentration 100: FBXW7 target concentration 100 nM; for interaction data at Target Concentration 300: FBXW7 target concentration 300 nM; for interaction data at Target Concentration 1000: FBXW7 target concentration 1000 nM
# T2 construct: FBXW7 (Uniprot ID: Q969H0, residues 263-706) with an N-terminal GST-TEV tag and C-terminal AVI tag; GST-TEV (N); made in house; host or cells: E. coli BL21 (DE3)
# T2 sequence (Q969H0 263-706): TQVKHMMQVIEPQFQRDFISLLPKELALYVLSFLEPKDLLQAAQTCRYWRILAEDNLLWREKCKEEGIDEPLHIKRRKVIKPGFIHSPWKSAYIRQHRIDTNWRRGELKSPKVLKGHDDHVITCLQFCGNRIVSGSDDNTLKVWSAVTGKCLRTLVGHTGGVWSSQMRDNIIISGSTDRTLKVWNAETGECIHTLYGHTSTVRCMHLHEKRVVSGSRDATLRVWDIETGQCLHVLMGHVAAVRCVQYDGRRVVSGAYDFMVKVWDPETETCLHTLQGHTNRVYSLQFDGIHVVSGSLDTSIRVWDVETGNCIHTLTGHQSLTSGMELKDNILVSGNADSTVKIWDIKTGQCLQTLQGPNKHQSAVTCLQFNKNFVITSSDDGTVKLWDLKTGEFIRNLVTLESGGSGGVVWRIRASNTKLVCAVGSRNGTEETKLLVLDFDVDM
# T2 sequence (P63208 whole entry partner, the tested form may be a part): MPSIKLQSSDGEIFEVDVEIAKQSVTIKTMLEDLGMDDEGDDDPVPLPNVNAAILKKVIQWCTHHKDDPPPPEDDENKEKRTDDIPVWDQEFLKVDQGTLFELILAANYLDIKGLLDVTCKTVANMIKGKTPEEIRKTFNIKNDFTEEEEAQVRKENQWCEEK
# Experimental: To conduct phage library screening, previously described procedures were utilized in accordance with the present disclosure.
# Next-generation sequencing was performed as described in accordance with the present disclosure.
# Hit ID and Clustering is performed according to a described procedure in accordance with the present disclosure.
# WWP1 = molecular target: T3, WWP1 (Homo sapiens, UniProt Q9H0M0); test: Naive Library Presenter Screening (phage, NGS), WWP1 (construct not given); details: for interaction data at Target Concentration 10: WWP1 target concentration 10 nM; for interaction data at Target Concentration 30: WWP1 target concentration 30 nM; for interaction data at Target Concentration 100: WWP1 target concentration 100 nM; for interaction data at Target Concentration 300: WWP1 target concentration 300 nM; for interaction data at Target Concentration 1000: WWP1 target concentration 1000 nM
# T3 construct: GST-TEV (N, cleaved yes); made in house; host or cells: Escherichia coli BL21 (DE3)
interaction data at Target Concentration 10 (FBXW7-SKP1),interaction data at Target Concentration 30 (FBXW7-SKP1),interaction data at Target Concentration 100 (FBXW7-SKP1),interaction data at Target Concentration 300 (FBXW7-SKP1),interaction data at Target Concentration 1000 (FBXW7-SKP1; first column),interaction data at Target Concentration 1000 (FBXW7-SKP1; second column),Sequence,interaction data at Target Concentration 10 (WWP1),interaction data at Target Concentration 30 (WWP1),interaction data at Target Concentration 100 (WWP1),interaction data at Target Concentration 300 (WWP1),interaction data at Target Concentration 1000 (WWP1; second column),further results
,,,,,,DPAWFTCAQAAWDCVFH,,,,,,interaction data at Target Concentration 10 (CUL5; CUL5 target concentration 10 nM): 0; interaction data at Target Concentration 30 (CUL5; CUL5 target concentration 30 nM): 65; interaction data at Target Concentration 300 (CUL5; CUL5 target concentration 300 nM): 96; interaction data at Target Concentration 1000 (CUL5; first column): 224; interaction data at Target Concentration 1000 (CUL5; second column): 0
1,23,187,302,505,554,DPADMYCRDAAELCEFW,,,,,,
1,26,61,34,215,132,DPAITTCLDAAELCDFW,,,,,,
4,131,203,946,1140,1464,DPANIACDDAALLCEFW,,,,,,
0,0,2,7,5,8,DPANIACDDAALLCAFW,,,,,,
0,0,20,28,91,17,DPAFWYCDEAAEMCEFW,,,,,,
0,1,1,7,8,6,DPANIACDDAALLCELW,,,,,,
0,0,5,2,99,15,"DPANWVCMDAAELCDFY (DPANWVCMDAAELCDFY-NH2; linker 7-14 via Phenylene(1,4-NHCOCH2)2 (inferred))",,,,,,
,,,,,,"DPAFHYCTMAANMCHQD (linker 7-14 via Phenylene(1,4-NHCOCH2)2)",0,0,3,73,169,
,,,,,,"DPAFLTCTLAASLCHQD (linker 7-14 via Phenylene(1,4-NHCOCH2)2)",0,0,0,145,253,
0,0,1,4,66,94,DPAIRMCRDAAELCEFW,,,,,,
2,80,352,535,1005,510,DPADLTCEDAAELCEFW,,,,,,
,,,,,,"DPAFIQCTHAANMCHSS (linker 7-14 via Phenylene(1,4-NHCOCH2)2)",0,3,43,,562,interaction data at Target Concentration 1000 (WWP1; first column): 336
1,3,68,20,282,228,DPADMMCENAALLCEFW,,,,,,
,,,,,,"DPATMNCTLAANICHSH (linker 7-14 via Phenylene(1,4-NHCOCH2)2 (inferred); not fully specified (C-terminus))",0,0,3,363,197,interaction data at Target Concentration 1000 (WWP1; first column): 458
0,0,0,3,17,83,DPAMTWCLNAAELCEFW,,,,,,
,,,,,,"DPARLDCTAAAYVCSVL (linker 7-14 via Phenylene(1,4-NHCOCH2)2)",0,0,109,91,140,
,,,,,,"DPAMIACSHAAQMCHWS (linker 7-14 via Phenylene(1,4-NHCOCH2)2)",0,8,3,454,281,interaction data at Target Concentration 1000 (WWP1; first column): 275
,,,,,,"DPAVRDCSDAAIVCELV (linker 7-14 via Phenylene(1,4-NHCOCH2)2)",5,5,147,91,197,
,,,,,,"DPAATLCNQAANVCALL (linker 7-14 via Phenylene(1,4-NHCOCH2)2)",0,0,132,145,197,
4,39,35,163,245,449,DPAAFFCDDAAERCEFW,,,,,,
,,,,,,"DPAIQRCSTAAQVCRYL (linker 7-14 via Phenylene(1,4-NHCOCH2)2)",0,6,202,236,197,
,,,,,,"DPAMRRCHQAAWVCEVL (linker 7-14 via Phenylene(1,4-NHCOCH2)2)",0,1,98,182,140,interaction data at Target Concentration 1000 (WWP1; first column): 183
,,,,,,"DPAQQTCSQAAWVCSIL (linker 7-14 via Phenylene(1,4-NHCOCH2)2; not fully specified (C-terminus))",0,55,443,363,477,interaction data at Target Concentration 1000 (WWP1; first column): 397
0,0,1,3,13,38,DPAYFSCEDAAELCEWY,,,,,,
0,0,1,5,5,82,DPATYFCYDAAELCDWW,,,,,,
0,0,5,4,15,36,DPAAWICEEAAEICEFW,,,,,,
,,,,,,"DPAIIRCTSAAMMCHNT (linker 7-14 via Phenylene(1,4-NHCOCH2)2)",0,4,0,55,169,interaction data at Target Concentration 1000 (WWP1; first column): 183
